Results: publication PMC12455940

Molecular target: leader of the capsid (LC) protein from Feline calicivirus (Feline calicivirus, Urbana strain)
Test: non-reducing SDS-PAGE and western blot; total protein extracts (RIPA) of FCV-infected CrFK cells, MOI of 5, 1 to 9 hpi; Laemmli buffer without β-ME; detected with anti-LC serum; also cells untreated or treated with 5 µM 16F16

For “leader of the capsid (LC) protein from Feline calicivirus (natural protein)”, the stoichiometry N was 2.
